The record followed here is paper doi:10.1101/2020.02.12.945170, “Regulated unbinding of ZAP70 at the T cell receptor by kinetic avidity” (bioRxiv, 2020).

Square brackets hold non-standard residues; d marks the D form. Ends that are not written are not given here. * marks the point of attachment. Biotin = O=C1N[C@H]2[C@H](CS[C@H]2CCCCC(=O)*)N1; pY = N[C@@H](Cc1ccc(OP(=O)(O)O)cc1)C(=O)O

Assay [1] concerns the target T1, ZAP70 tSH2-GFP (tandem SH2 domains of human ZAP70, amino acids 1-264, with C-terminal GFP) (human, UniProt P43403 1-264).
T1 construct: tandem SH2 domains of human ZAP70 (Zeta-chain-associated protein kinase 70), amino acids 1-264; Cloned into pET21 between NdeI and NotI; source: E. coli BL21 (DE3), purified (Ni2+-NTA, Sephacryl S-200 size exclusion); not shown: GFP, C-terminal, kept
T1 sequence (looked up): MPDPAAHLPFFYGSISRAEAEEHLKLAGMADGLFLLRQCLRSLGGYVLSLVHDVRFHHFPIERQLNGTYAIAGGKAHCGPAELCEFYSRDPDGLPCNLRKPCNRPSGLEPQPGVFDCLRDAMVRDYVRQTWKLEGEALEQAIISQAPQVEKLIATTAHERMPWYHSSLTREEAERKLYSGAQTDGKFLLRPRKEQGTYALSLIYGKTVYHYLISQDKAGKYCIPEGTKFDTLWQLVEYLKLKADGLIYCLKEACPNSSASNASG
The assay is described as follows: single particle tracking by TIRF microscopy; biotinylated ITAM3 peptides immobilised on coverslips coated with poly-L-lysine-PEG-biotin and streptavidin; ZAP70 tSH2-GFP or tSH2-Halo-Alexa647 at 200 nM in PBS/BSA with 1 mM DTT; 37°C; distributions of binding times fitted with exponentials (slow phase of a two-phase decay for the biphosphorylated peptide). The settings on record: both partners purified.

In assay [2] the target is T1, ZAP70 tSH2-GFP (tandem SH2 domains of …). In words: SPR; Biacore S200, 37°C, HBS-EP (10 mM HEPES pH 7.4, 150 mM NaCl, 1 mM EDTA, 0.005% Tween P20), 50 µl/min; biotinylated peptides or Avi-CD3ζ ITAM3 immobilised on streptavidin-coupled CM5 chips, ZAP70 tSH2-GFP injected; 1:1 binding model, 'effective' constants for the biphosphorylated peptide; on Avi-CD3ζ ITAM3 also ABA injections of 500 nM ZAP70 with CD45 cytoplasmic domain. The conditions noted are these: both partners purified. On the technique in general: Surface plasmon resonance follows binding to a sensor surface in real time, without labels.

B1: ITAM3 C (C-monophosphorylated CD3ζ ITAM3 peptide) (peptide)
peptide: Biotin-GKGHDLLYQGLSTATKDT[pY]DALHMQ
notes: peptide derived from the membrane-distal ITAM of CD3ζ (ITAM3); also called ITAM C; monophosphorylated ITAM3 C; source: synthetic peptide; bought: PeptideSynthetics (>95% pure)
Turning to B1, in assay [1], the koff (in general, a measure of how fast the partners let go of each other) was determined as 4.75 ± 0.14 s⁻¹.

B2: ITAM3 N (N-monophosphorylated CD3ζ ITAM3 peptide) (peptide)
peptide: Biotin-GKGHDLL[pY]QGLSTATKDTYDALHMQ
notes: peptide derived from the membrane-distal ITAM of CD3ζ (ITAM3); also called ITAM N; monophosphorylated ITAM3 N; source: synthetic peptide; bought: PeptideSynthetics (>95% pure)
In the case of B2, the koff in assay [1] was 11.4 ± 0.011 s⁻¹.

B3: ITAM3 NC (biphosphorylated CD3ζ ITAM3 peptide) (peptide)
peptide: Biotin-GKGHDLL[pY]QGLSTATKDT[pY]DALHMQ
notes: peptide derived from the membrane-distal ITAM of CD3ζ (ITAM3); also called ITAM NC; biphosphorylated ITAM3; source: synthetic peptide; bought: PeptideSynthetics (>95% pure)
With B3, in assay [1], the koff stood at 0.368 ± 0.011 s⁻¹. Also, in assay [2], binding was characterised by a dissociation constant (Kd) of 0.096 µM, the koff was determined as 0.227 s⁻¹ and the kon (usually the rate constant with which the complex forms) is 1.89e+06 M⁻¹ s⁻¹.
